The values below come from paper PMC6720803, “Stability Evaluation and Stabilization of a Gastrin-Releasing Peptide Receptor (GRPR) Targeting Imaging Pharmaceutical” (Molecules, 2019).

Series [1] is classed as physicochemical. The following applies: pH 7.2. The method, then: A dose calibrator (Capintec, Florham Park, NJ, USA) and a Wizard 2480 gamma counter (Perkin Elmer, Waltham, MA, USA) were used for radioactivity measurements in the samples. A model 1100 Agilent HPLC system (Agilent, Wilmington, DE, USA) was used for the analysis of ^177Lu-labeled RM1 and AMBA and stability samples. The system consisted of a quaternary pump, degasser, column compartment capable of controlling the temperature at ambient or at 37 °C, auto-injector, a multiwavelength detector, and a Flow Ram radioisotope detector (Lab Logic, Sheffield, UK). The system was controlled by Laura software from Lab Logic. […] Zorbax Bonus RP C18 column (4.6 × 250 mm, 5 µm) was used for the analysis of ^177Lu-labeled AMBA and RM1 samples and for the separation of the ^177Lu-labeled AMBA and RM1 from their in vitro metabolic degradants in mouse, human, and canine sera stability samples.
(§1) All mass spectral analyses were performed at the Campus Chemical Instrument Center of the Ohio State University (Columbus, OH, USA) using a Bruker UltrafleXtreme MALDI-TOF MS system. […]

The nature of series [2]: log D by shake-flask method. Type of series: physicochemical. The method, then: The log D values were determined by a traditional shake-flask method. In a typical experiment, 10 μL sample of ^177Lu-labeled AMBA or RM1 with 0.037–0.052 GBq/mL radioconcentration and 814 GBq/mmol molar activity were added to a 4 mL mixture of 50:50 octanol:water. The mixture was shaken for one minute and mixed well. The sample was stored at room temperature for 5 min for separation of the two layers. Sample from each layer (25 μL) was added to a counting tube containing 250 μL water. The samples were mixed and counted. Triplicate measurements were made. The log D values were calculated using Equation (1): D = Counts in organic phase/Counts in the aqueous phase.(1)

The nature of series [3]: Stability of high-radioconcentration samples in acetate buffer without and with stabilizers. In kind it is physicochemical. The settings on record: 2–8 °C; for half-life of degradation (t1/2): 0.1 M acetate buffer pH 5, high radioconcentration (0.74 GBq/mL), RP-HPLC, first-order fit, average (SD) n = 3. The method, then:
The ^177Lu-labeled RM1 samples in acetate buffer, with 0.74 GBq/mL radio concentration, 10,175–12,765 GBq/mmol molar activity, and >99% RCP, were prepared for high-radioconcentration sample stability studies. […] Degradation of the high-radioconcentration sample in acetate buffer was at least 20 times faster than the degradation of the low-radioconcentration samples of ^177Lu-labeled RM1.
All mass spectral analyses were performed at the Campus Chemical Instrument Center of the Ohio State University (Columbus, OH, USA) using a Bruker UltrafleXtreme MALDI-TOF MS system. An RP-HPLC method, involving a gradient mobile phase system of 50 mM Tris acetate, 10 mM EDTA at pH 7.2 (solvent A), and acetonitrile (solvent B) with 1 mL/min flow rate, was used to monitor the extent of the reaction of ^177Lu/Lu with AMBA and RM1; for the purity analysis of RM1, AMBA, Lu-RM1, Lu-AMBA, and of the final ^177Lu-labeled samples; and for monitoring the degradation of ^177Lu-labeled RM1 or AMBA samples in acetate buffer, mouse, canine, and human sera. The EDTA was incorporated to detect any unreacted ^177Lu/Lu in the samples. The gradient program used was 0% B at the beginning, raising the percentage of B to 50% in 15 min, holding B at 50% for 4 min, followed by decreasing the percentage of B to 0% in 5 min and continuing 0% for an additional 9 min. The total run time was […].
All samples of ^177Lu-labeled RM1 were prepared in 0.1 M acetate buffer, pH 5–5.5. The ^177Lu-labeled RM1 samples, with a low radioconcentration, were stored at room temperature and at 2–8 °C storage conditions for 6 d for stability studies. The samples with a high radioconcentration, without and with a stabilizer (gentisic acid or ascorbic acid), were stored 2–8 °C for 2 and 7 d, respectively. For the effect of stabilizer (ascorbic acid or gentisic acid) on the stability of the high-radioconcentration samples of ^177Lu-labeled RM1, the samples were mixed with 500 µg of ascorbic or gentisic acid post radiolabeling. The stability or degradation of the samples was monitored by a reduction in the percent HPLC peak area of ^177Lu-labeled RM1 with time.
Degradation of ^177Lu-labeled RM1 or AMBA was monitored by a reduction in percent HPLC peak area with time. Half-lives of in vitro acetate buffer and serum degradation for each imaging pharmaceutical were calculated by fitting the percent peak remaining versus time to a first-order kinetics model (Equations (2) and (3)) using Excel or Graph Pad Prism version 5.03 software (Graph Pad Software, Inc., La Jolla, CA, USA). Pt = P0 exp (−k × t);(2) t1/2 = 0.693/k;(3) where Pt is the percent peak area at time t, Po is the percent peak area initially, t is the time elapsed, k is the first-order rate constant, and t1/2 is the half-life of degradation reaction. All degradation kinetics experiments were conducted in triplicate, and average (n = 3) values (standard deviation given in the parenthesis) of half-life are reported.

The format of series [4] is in vitro ADME, mouse. The method, then: (§2) For mouse, canine, and human sera stability studies, 50 µL of ^177Lu-labeled RM1 or AMBA was mixed with 450 µL of mouse or canine or human serum. The mixtures were incubated at 37 °C for 24 h, samples were processed at each time point, and analyzed by an RP-HPLC method.
as §1
(§3) A literature procedure was followed for the serum stability studies of ^177Lu-labeled RM1 and AMBA [37, 43]. […] Several mixtures, containing 50 µL of ^177Lu-labeled RM1 or AMBA (usually 1.48 to 2.22 MBq radioactivity) and 450 µL of the mouse or human or canine serum, were prepared in HPLC vials and incubated at 37 °C in the block heater. […] The sample was then centrifuged at 6000 rpm for 15 min, and 200 µL of the supernatant solution was isolated and analyzed by an RP- HPLC method given above. A control experiment was conducted where samples of ^177Lu-labeled AMBA and RM1 were incubated in the water at 37 °C and analyzed by the RP-HPLC method.
(§4) Degradation of ^177Lu-labeled RM1 or AMBA was monitored by a reduction in percent HPLC peak area with time. […]

A short description of series [5]: In vitro human serum stability. The settings on record: 50 µL labeled peptide + 450 µL human serum, 37 °C, RP-HPLC, read-out: degradation in human serum. Type of series: in vitro ADME. The method, then:
as §2, §1, §3, §4

Series [6] can be described thus: Stability of low-radioconcentration samples in acetate buffer. In kind it is physicochemical. The following applies: pH 5. The method, then: The final pH of the ^177Lu-labeled RM1 and AMBA, post radiolabeling, was usually ~5 to 5.5, and the acetate buffer concentration was 0.1 M. Consequently, the degradation kinetics of ^177Lu-labeled RM1 and AMBA were evaluated in this environment after storage at room temperature (25 °C) and 2–8 °C for 5 d. Both samples were analyzed using an RP-HPLC method at various time points.
as §1
All samples of ^177Lu-labeled RM1 were prepared in 0.1 M acetate buffer, pH 5–5.5. […] The stability or degradation of the samples was monitored by a reduction in the percent HPLC peak area of ^177Lu-labeled RM1 with time.
Degradation of ^177Lu-labeled RM1 or AMBA was monitored by a reduction in percent HPLC peak area with time. Half-lives of in vitro acetate buffer and serum degradation for each imaging pharmaceutical were calculated by fitting the percent peak remaining versus time to a first-order kinetics model (Equations (2) and (3)) using Excel or Graph Pad Prism version 5.03 software (Graph Pad Software, Inc., La Jolla, CA, USA). […]

In series [7] the test system is gastrin-releasing peptide (GRP) receptors in a PC-3 cell line. Also on record: method as in PMID 16818949, PMID 16909223. The following applies: GRP receptors in PC-3 cell line; cited from earlier work. The method, then:
The first proof-of-concept GRPR targeting study was conducted using a ^99mTc-labeled BBN (7–14) conjugate (RP527) for breast and prostate cancer imaging. […] Despite the general consensus rel ...

The test system of the next series is GRPR. On the set-up: method as in PMID 23763444, PMID 24312607. The settings on record: cell binding and internalization; cited from earlier work.
For a further series, the system named is PC-3 tumor. The following applies: mouse, in vivo; cited from earlier work. An excerpt:
Several classes of BBN antagonists have been designed by modifying the C-terminal residues of naturally amidated BBN agonists. […] Additionally, ^68Ga-, ^111In-, and ^18F-AlF-labeled NOTA-PEG2-RM26 (where RM26 = D-Phe-Gln-Trp-Ala-Val-Gly-His-Sta-L ...

In the case of `CC(C)C[C@H](NC(=O)C[C@H](O)[C@H](CC(C)C)NC(=O)[C@H](Cc1c[nH]cn1)NC(=O)CNC(=O)[C@@H](NC(=O)[C@H](C)NC(=O)[C@H](Cc1c[nH]c2ccccc12)NC(=O)[C@H](CCC(N)=O)NC(=O)[C@@H](Cc1ccccc1)NC(=O)c1ccc(NC(=O)CNC(=O)CN2CCN(CC(=O)O)CCN(CC(=O)O)CCN(CC(=O)O)CC2)cc1)C(C)C)C(N)=O` [Lu-RM1], the “relative lipophilicity from retention times” value in series [1] is “slightly more lipophilic than Lu-AMBA”. In series [2], the “log D” value is recorded as −2.46 (0.07).
Take `CC(C)C[C@H](NC(=O)C[C@H](O)[C@H](CC(C)C)NC(=O)[C@H](Cc1c[nH]cn1)NC(=O)CNC(=O)[C@@H](NC(=O)[C@H](C)NC(=O)[C@H](Cc1c[nH]c2ccccc12)NC(=O)[C@H](CCC(N)=O)NC(=O)[C@@H](Cc1ccccc1)NC(=O)c1ccc(NC(=O)CNC(=O)CN2CCN(CC(=O)O)CCN(CC(=O)O)CCN(CC(=O)O)CC2)cc1)C(C)C)C(N)=O` [^177Lu-labeled RM1, metal not drawn]: the entries for the “half-life of degradation (t1/2)” value in [3] (500 µg ascorbic acid), in [3] (500 µg gentisic acid) and in series [3] (no stabilizer) were 39.2 (0.6) h, 142.5 (1.4) h and 8.5 (0.2) h, respectively. In [3] (acetate buffer), the “degradation of high- versus low-radioconcentration samples, times faster” value is reported as “at least 20 times”. For the same compound, the “improvement of stability versus no stabilizer” value in series [3] (high radioconcentration, 500 µg gentisic acid) is on record as approximately 17 fold. For the same compound, the “factor by which degradation is reduced versus control without stabilizer” value in series [3] (high radioconcentration, ascorbic acid) was not below 5. For the same compound, the “degradation after 1440 min incubation” value in series [4] is reported as “complete degradation”. The metabolised at 24 h in [5] was less than 10%. The “degraded in acetate buffer within the same time period as the mouse serum study” value in [6] is listed as 10-12%.
Regarding “DO3A-CH2CO-G-[4-aminobenzyl]- Gln-Trp-Ala-Val-Gly-His-Leu-Met-NH2 [AMBA, GRPR agonist, BBN-like peptide chelator conjugate, gift from Bracco Diagnostics]”, the IC50 in [7] is 4.75 ± 0.25 nM.
As to “NOTA-PEG2-RM26 (where RM26 = D-Phe-Gln-Trp-Ala-Val-Gly-His-Sta-Leu-NH2) [^68Ga-labeled NOTA-PEG2-RM26]”, the IC50 in the series with GRPR is 0.91 ± 0.19 nM. Besides, the specific tumor uptake in the series with PC-3 tumor is 8.1 ± 0.4 %ID/g.
On to “NOTA-PEG2-RM26 (where RM26 = D-Phe-Gln-Trp-Ala-Val-Gly-His-Sta-Leu-NH2) [^111In-labeled NOTA-PEG2-RM26]”, for which the half-maximal inhibitory concentration (IC50) with GRPR is 1.24 ± 0.29 nM. The specific tumor uptake in the series with PC-3 tumor was 5.7 ± 0.3 %ID/g.
